The test system of the series is SLK (construct not stated).
Chain of SLK (construct not stated) (chain, as listed by the source): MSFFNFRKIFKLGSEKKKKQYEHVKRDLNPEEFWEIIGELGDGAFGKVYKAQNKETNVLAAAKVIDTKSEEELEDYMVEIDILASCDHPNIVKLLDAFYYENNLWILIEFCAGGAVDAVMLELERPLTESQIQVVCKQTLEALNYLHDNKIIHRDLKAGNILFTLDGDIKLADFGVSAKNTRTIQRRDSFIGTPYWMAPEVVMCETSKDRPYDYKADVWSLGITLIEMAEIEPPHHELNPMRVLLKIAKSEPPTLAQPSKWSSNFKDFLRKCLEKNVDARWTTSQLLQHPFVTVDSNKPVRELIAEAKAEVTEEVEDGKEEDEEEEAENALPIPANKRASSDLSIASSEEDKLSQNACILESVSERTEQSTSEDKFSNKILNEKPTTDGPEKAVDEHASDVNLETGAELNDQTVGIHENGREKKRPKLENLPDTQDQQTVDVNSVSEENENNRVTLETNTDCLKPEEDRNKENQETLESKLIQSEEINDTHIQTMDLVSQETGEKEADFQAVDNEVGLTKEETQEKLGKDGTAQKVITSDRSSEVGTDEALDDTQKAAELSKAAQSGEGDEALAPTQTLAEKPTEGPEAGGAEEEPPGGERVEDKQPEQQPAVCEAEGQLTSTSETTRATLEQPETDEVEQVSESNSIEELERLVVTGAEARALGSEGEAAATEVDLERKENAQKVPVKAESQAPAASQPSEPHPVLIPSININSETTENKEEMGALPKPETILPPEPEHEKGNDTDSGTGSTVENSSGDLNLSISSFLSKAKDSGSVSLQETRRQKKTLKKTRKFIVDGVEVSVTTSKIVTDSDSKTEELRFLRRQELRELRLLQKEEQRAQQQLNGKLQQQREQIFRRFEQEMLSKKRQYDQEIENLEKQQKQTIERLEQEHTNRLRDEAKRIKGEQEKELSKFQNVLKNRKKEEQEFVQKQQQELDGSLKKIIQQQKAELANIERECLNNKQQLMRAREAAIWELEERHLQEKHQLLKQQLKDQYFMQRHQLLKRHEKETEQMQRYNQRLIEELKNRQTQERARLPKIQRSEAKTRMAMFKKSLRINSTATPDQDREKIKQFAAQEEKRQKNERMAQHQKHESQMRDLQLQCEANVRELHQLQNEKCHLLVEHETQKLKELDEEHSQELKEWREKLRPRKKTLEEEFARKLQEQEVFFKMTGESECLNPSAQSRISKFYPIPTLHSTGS

“nm23 (nucleoside diphosphate kinase; NDPK)”: the “SLK activity in vitro (kinase assay, autophosphorylation)” value is reported as “nm23 is not a substrate for SLK but rather inhibits its activity in vitro through direct interaction”.

For the origin of these results see patent publication US20090081195.
